# Results as given in patent US20230321287A1, “RADIOLABELLED GRPR-ANTAGONIST FOR USE AS THERAGNOSTIC” (NOVARTIS AG, priority 2019, published 2023).
# Key:
# clinical = conditions: for tissue uptake at 4 h / tissue uptake at 0.25 h / tissue uptake at 1 h / tissue uptake at 2 h: human, Relative radiotracer uptake
# Excerpt: The primary objective was to characterize preliminary targeting properties of [68Ga] NeoB in patients with malignancies known to overexpress GRPR. The primary efficacy endpoints were: • Number and location of tumor lesions detected by [68Ga]-NeoBOMB1 overall and for each tumor type • Calculation of the ratio tumor/background standard uptake value (SUV) and %injected dose per gram of tissue (ID/g) and calculation of absorbed dose (mGy/MBq) in tumor overall and for each tumor type.
# Accordingly, highest relative tracer uptake following administration of a bombesin antagonist is expected in pancreas, kidney, and liver (Roivainen et al, 2013).
# GRPR = GRPR (Homo sapiens, UniProt P30550); conditions: non-clinical models; cited from earlier work
# Sequence of GRPR (P30550 whole entry, species assumed): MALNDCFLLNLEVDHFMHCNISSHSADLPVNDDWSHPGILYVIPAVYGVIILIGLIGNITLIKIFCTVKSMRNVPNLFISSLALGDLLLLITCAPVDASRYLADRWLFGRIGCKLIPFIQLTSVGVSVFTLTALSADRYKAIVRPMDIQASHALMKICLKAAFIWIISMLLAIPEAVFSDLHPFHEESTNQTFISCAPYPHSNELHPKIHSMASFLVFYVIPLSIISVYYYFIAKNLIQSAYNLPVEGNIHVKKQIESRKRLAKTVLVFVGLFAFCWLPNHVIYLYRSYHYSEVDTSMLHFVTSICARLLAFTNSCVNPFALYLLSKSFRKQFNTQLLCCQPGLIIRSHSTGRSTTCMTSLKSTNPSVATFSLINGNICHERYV
smiles,measurement,setting,value
"CC(C)CC(CC(C)C)NC(=O)[C@H](Cc1cnc[nH]1)NC(=O)CNC(=O)[C@@H](NC(=O)[C@H](C)NC(=O)[C@H](Cc1c[nH]c2ccccc12)NC(=O)[C@H](CCC(N)=O)NC(=O)[C@@H](Cc1ccccc1)NC(=O)COCC(=O)Nc1ccc(CNC(=O)CN2CCN(CC(=O)O)CCN(CC(=O)O)CCN(CC(=O)O)CC2)cc1)C(C)C [[68Ga]-NeoB, metal not drawn]",tissue uptake at 4 h,"clinical; tumor lesion T3-liverL, total radioactivity, patient FR01-009, 240 min/207.9 min actual",0.0178 %ID/g
same,tissue uptake at 0.25 h,"clinical; tumor lesion T4-liverR1, total radioactivity, patient FR01-009, tumor lesion T4-liverR1, 15 min/17.8 min actual",0.013 %ID/g
same,tissue uptake at 1 h,"clinical; tumor lesion T4-liverR1, total radioactivity, patient FR01-009, tumor lesion T4-liverR1, 60 min/60.7 min actual",0.014 %ID/g
same,tissue uptake at 2 h,"clinical; tumor lesion T4-liverR1, total radioactivity, patient FR01-009, tumor lesion T4-liverR1, 120 min/123.9 min actual",0.0153 %ID/g
same,tissue uptake at 4 h,"clinical; tumor lesion T4-liverR1, total radioactivity, patient FR01-009, tumor lesion T4-liverR1, 240 min/207.9 min actual",0.0116 %ID/g
same,tissue uptake at 0.25 h,"clinical; tumor lesion T5-liverR2, total radioactivity, patient FR01-009, tumor lesion T5-liverR2, 15 min/17.8 min actual",0.015 %ID/g
same,tissue uptake at 1 h,"clinical; tumor lesion T5-liverR2, total radioactivity, patient FR01-009, tumor lesion T5-liverR2, 60 min/60.7 min actual",0.0193 %ID/g
same,tissue uptake at 2 h,"clinical; tumor lesion T5-liverR2, total radioactivity, patient FR01-009, tumor lesion T5-liverR2, 120 min/123.9 min actual",0.022 %ID/g
same,tissue uptake at 4 h,"clinical; tumor lesion T5-liverR2, total radioactivity, patient FR01-009, tumor lesion T5-liverR2, 240 min/207.9 min actual",0.0212 %ID/g
same,tissue uptake at 0.25 h,"clinical; tumor lesion T6-sacrumL, total radioactivity, patient FR01-009, 15 min/17.8 min actual",0.00315 %ID/g
same,tissue uptake at 1 h,"clinical; tumor lesion T6-sacrumL, total radioactivity, patient FR01-009, 60 min/60.7 min actual",0.00289 %ID/g
same,tissue uptake at 2 h,"clinical; tumor lesion T6-sacrumL, total radioactivity, patient FR01-009, 120 min/123.9 min actual",0.00254 %ID/g
same,tissue uptake at 4 h,"clinical; tumor lesion T6-sacrumL, total radioactivity, patient FR01-009, 240 min/207.9 min actual",0.00188 %ID/g
same,tissue uptake at 0.25 h,"clinical; tumor lesion T7-liverP, total radioactivity, patient FR01-009, 15 min/17.8 min actual",0.0122 %ID/g
same,tissue uptake at 1 h,"clinical; tumor lesion T7-liverP, total radioactivity, patient FR01-009, 60 min/60.7 min actual",0.0118 %ID/g
same,tissue uptake at 2 h,"clinical; tumor lesion T7-liverP, total radioactivity, patient FR01-009, 120 min/123.9 min actual",0.0124 %ID/g
same,tissue uptake at 4 h,"clinical; tumor lesion T7-liverP, total radioactivity, patient FR01-009, 240 min/207.9 min actual",0.0108 %ID/g
same,tissue uptake at 0.25 h,"clinical; tumor lesion T8-liverR, total radioactivity, patient FR01-009, 15 min/17.8 min actual",0.0108 %ID/g
same,tissue uptake at 1 h,"clinical; tumor lesion T8-liverR, total radioactivity, patient FR01-009, 60 min/60.7 min actual",0.00961 %ID/g
same,tissue uptake at 2 h,"clinical; tumor lesion T8-liverR, total radioactivity, patient FR01-009, 120 min/123.9 min actual",0.0109 %ID/g
same,tissue uptake at 0.25 h,"clinical; urinary bladder wall, total radioactivity, patient FR01-008, 15 min/38.6 min actual",0.0313 %ID/g
same,tissue uptake at 1 h,"clinical; urinary bladder wall, total radioactivity, patient FR01-008, 60 min/62.6 min actual",0.0426 %ID/g
same,tissue uptake at 2 h,"clinical; urinary bladder wall, total radioactivity, patient FR01-008, 120 min/123.2 min actual",0.0214 %ID/g
same,tissue uptake at 4 h,"clinical; urinary bladder wall, total radioactivity, patient FR01-008, 240 min/221.1 min actual",0.0179 %ID/g
same,tissue uptake at 0.25 h,"clinical; urinary bladder wall, total radioactivity, patient FR01-009, 15 min/17.8 min actual",0.0268 %ID/g
same,tissue uptake at 1 h,"clinical; urinary bladder wall, total radioactivity, patient FR01-009, 60 min/60.7 min actual",0.0648 %ID/g
same,tissue uptake at 2 h,"clinical; urinary bladder wall, total radioactivity, patient FR01-009, 120 min/123.9 min actual",0.0405 %ID/g
same,tissue uptake at 4 h,"clinical; urinary bladder wall, total radioactivity, patient FR01-009, 240 min/207.9 min actual",0.11 %ID/g
same,Relative radiotracer uptake,"clinical; patient FR01-008, Alveolar-interstitial (Lungs), 15 min/38.6 min actual",2.1842E-03 %ID/g
same,Relative radiotracer uptake,"clinical; patient FR01-008, Alveolar-interstitial (Lungs), 60 min/62.6 min actual",9.4759E-04 %ID/g
same,Relative radiotracer uptake,"clinical; patient FR01-008, Alveolar-interstitial (Lungs), 120 min/123.2 min actual",6.7856E-04 %ID/g
same,Relative radiotracer uptake,"clinical; patient FR01-008, Alveolar-interstitial (Lungs), 240 min/221.1 min actual",6.2082E-04 %ID/g
same,Relative radiotracer uptake,"clinical; patient FR01-008, Heart wall, 15 min/38.6 min actual",6.0002E-03 %ID/g
same,Relative radiotracer uptake,"clinical; patient FR01-008, Heart wall, 60 min/62.6 min actual",2.4054E-03 %ID/g
same,Relative radiotracer uptake,"clinical; patient FR01-008, Heart wall, 120 min/123.2 min actual",1.6323E-03 %ID/g
same,Relative radiotracer uptake,"clinical; patient FR01-008, Heart wall, 240 min/221.1 min actual",1.3018E-03 %ID/g
same,Relative radiotracer uptake,"clinical; patient FR01-008, Kidneys, 15 min/38.6 min actual",6.8821E-03 %ID/g
same,Relative radiotracer uptake,"clinical; patient FR01-008, Kidneys, 60 min/62.6 min actual",5.7654E-03 %ID/g
same,Relative radiotracer uptake,"clinical; patient FR01-008, Kidneys, 120 min/123.2 min actual",2.3856E-03 %ID/g
same,Relative radiotracer uptake,"clinical; patient FR01-008, Kidneys, 240 min/221.1 min actual",1.4872E-03 %ID/g
same,Relative radiotracer uptake,"clinical; patient FR01-008, Spleen, 240 min/221.1 min actual",1.2014E-03 %ID/g
same,Relative radiotracer uptake,"clinical; patient FR01-008, tumor lesion T1-Chest, 15 min/38.6 min actual",3.4664E-03 %ID/g
same,Relative radiotracer uptake,"clinical; patient FR01-008, tumor lesion T1-Chest, 60 min/62.6 min actual",2.1832E-03 %ID/g
same,Relative radiotracer uptake,"clinical; patient FR01-008, tumor lesion T1-Chest, 120 min/123.2 min actual",1.4935E-03 %ID/g
same,Relative radiotracer uptake,"clinical; patient FR01-008, tumor lesion T1-Chest, 240 min/221.1 min actual",1.2884E-03 %ID/g
same,Relative radiotracer uptake,"clinical; patient FR01-008, tumor lesion T2-Left rib, 15 min/38.6 min actual",3.8441E-03 %ID/g
same,Relative radiotracer uptake,"clinical; patient FR01-008, tumor lesion T2-Left rib, 60 min/62.6 min actual",2.5064E-03 %ID/g
same,Relative radiotracer uptake,"clinical; patient FR01-008, tumor lesion T2-Left rib, 120 min/123.2 min actual",1.7251E-03 %ID/g
same,Relative radiotracer uptake,"clinical; patient FR01-008, tumor lesion T2-Left rib, 240 min/221.1 min actual",1.6681E-03 %ID/g
same,Relative radiotracer uptake,"clinical; patient FR01-008, tumor lesion T3-Spine, 15 min/38.6 min actual",4.6895E-03 %ID/g
same,Relative radiotracer uptake,"clinical; patient FR01-008, tumor lesion T3-Spine, 60 min/62.6 min actual",2.2489E-03 %ID/g
same,Relative radiotracer uptake,"clinical; patient FR01-008, tumor lesion T3-Spine, 120 min/123.2 min actual",1.8497E-03 %ID/g
same,Relative radiotracer uptake,"clinical; patient FR01-008, tumor lesion T3-Spine, 240 min/221.1 min actual",1.9539E-03 %ID/g
same,internalization upon binding to the specific receptor,GRPR,low degree of internalization
